According to US12390535B2, “Method of making oral dosage forms” (UNIVERSITÄT HEIDELBERG, priority 2018, dated 2025):

Assay: Zetasizer measurement of zeta potential of liposomes
Assay type: physicochemical
Conditions: CPP coupled after liposome preparation, eight equivalents relative to first lipid (FIG. 1)
Procedure: The zeta potential can be determined by methods known in the art. The zeta potential may be determined after dilution of the liposomes to a lipid concentration of 0.95 mg/ml using a 50 mM phosphate buffer with a pH of 7.4. The default settings of the automatic mode of the Zetasizer Nano ZS from Malvern™ (Malvern Instruments Ltd., Worcestershire, United Kingdom) can be chosen as follows: number of measurements=3; run duration=10 s; number of runs=10; equilibration time=60 s; refractive index solvent 1.330; refractive index polystyrene cuvette 1.590; viscosity=0.8872 mPa s; temperature=25° C.; dielectric constant=78.5 F/m; backscattering mode (173°); automatic voltage selection; Smoluchowski equation.
The particle size, PDI and zeta potential of all liposomal formulations were determined at room temperature using a zetasizer Nano ZS from Malvern™ (Malvern Instruments Ltd., Worcestershire, United Kingdom). Size and PDI were measured after dilution to a lipid concentration of 0.076 mg/ml with a 10 mM phosphate buffer with a pH of 7.4 using the automatic mode. The zeta potential was determined after dilution to a lipid concentration of 0.95 mg/ml by a 50 mM phosphate buffer with a pH of 7.4. […]

Sequence: RRRRRRRRRC (cyclo(RRRRRRRRRC); also: coupled to liposomes) [R9C, here coupled to liposomes after their preparation]
- zeta potential: only slightly positive
